Assay: soluble on expression in E. coli; label from the status in PepcDB or PDB records

Row | Sequence | soluble on expression in E. coli
1 | MRVRSETVNKPQSLRHALNKAVPYVRNNPDKLHLFVDNGSLVATGASSMSWEYRYTLNAVIEDFSGDQNLLMAPVLLWLRDNQPDAINNPALREKLFTFEVDILRNDVCDISLNLQLTERVLVSTDGSVSSVEAVAEPDEPEEMWTVKRG | not soluble
2 | MFIESRELVMKHRIPVAKTERYWKGLEEGKVFKTVCKSCGKEHHPPRAECLCGGEVEWVEITGEGVVEAFTTVHTIPAGFEWHREPYTIAIARFGEVRVMGWAKEVRVGDVVRLKPGKDETGVWKVYFEVVLEHHHHHH | soluble
3 | MINSPRVCIQVQSVYIEAQSSPDNERYVFAYTVTIRNLGRAPVQLLGRYWLITNGNGRETEVQGEGVVGVQPLIAPGEEYQYTSGAIIETPLGTMQGHYEMIDENGVPFSIDIPVFRLAVPTLIH | soluble
4 | MGSDKIHHHHHHMKKILVVGDFIKGSGLTNYLLNIYSSLPKDEFLISCVSYSGQHNIDTVLEEKKWEKFEVTPITQDIIKHFKDWNNFFKLHGNDFDEIHFNYSAPWNFIAILLAKLKSKAKIIVQSHNNYYSKQPKGLQKKVLAVLNVTGRTVIGRCSDIRLAVSEDSAQWMFGKRNVQILKNGINLKDFEYQPGPREELRKSIGINKGKKIIGFVGTLEKRKNPYFAIECLKKLNKEYILLMFGQGVLKKDLEKKIMDEGLEHRIKLMGVVDNLNEWYSVFDLFLFPSLTEGFGFALLEAQANGLKCFSSTSIPKEAKITNDVTSLNLSEINKWIDEIEKTSINDRERRSKQNCRIIEKKGFSIENTSKQFKRILLGDLS | not soluble
5 | MSLIYQTPDALDLQLDRIPSLPPPRRVVLTTPTHFDVEYVINPHMSENVGAVNTDVAWQQWKALRAAYTALDHTPVLVNGQSGLPDMVFCANQTLPFYDPASDSKGVVLSRMHSEQRADEVPYYARFFEEEGYAVDTLPEDLDADFEGMGDALWHPGHHLLWGGYGYRTSPEAYEALGDLLDVPIVALRLVDPDYYHLDTCLCPLDARHALVAPEAFDDAGRALIDALFETVIEVPDHEARHQFACNAHCPDGAHVLIQEGCEGTNAQLRNHDFVPVELDTSEFMKSGGSVFCMKQMIWEGHHHHHH | soluble
6 | MAFSVAYDLIPNKLIKDIDEMNQWLHDKINRAVYLVGFATQQSDYEYKLYELFKALDELEERLKKQLFLFGNQLTESDLYLLATLERFDNIYFCLFKCSLKRIADYPALFRYHNQLRGMESLASTYQPVLTKEHYFMSTMHVLGLEHHHHHH | not soluble
7 | MNDNTHTLPPRHLSVAPMLDWTDRHYRYLARQITRNTWLYSEMVNAGAIVYGDKDRFLMFNEGEQPVALQLGGSDPSDLAKAAKAAEAYGYNEVNLNCGCPSPRVQKGSFGACLMNEVGLVADCLNAMQDAVKIPVTVKHRIGVDRQTEYQTVADFVGTLRDKTACKTFIVHARNAWLDGLSPKENRDVPPLKYDYVYRLKQEFPGLEIIINGGITTNEAIAGHLQHVDGVMVGREAYHNPMVMREWDRLFYGDTRSPIEYADLVQRLYTYSQAQIQAGRGTILRHIVRHSLGLMHGLKGARTWRRMLSDATLLKDNDGSLILEAWKEVERANMRE | not soluble
8 | MLLNEASDAIYWVNHKGLITYANPSAQILFGYEEVELKDKSISDLIVSKTDLFSTFSSNIIEEKGVVIQQEFVRKDNSTFYGEMSVRLFDDGSHQAIIRDITKGVIEQRLLLDRERKFKILVENAFDIIIVLSSDFKIKFISPAIKKMLGYEIDSVLGENSNKFIEFRDRVMIKEVLKNHGITYAINDLKLIHKNGQIIHCEVNAVNFLNDPLINGIIVNCHDISKRIQTENELINTNYELDSFVYKVSHDLKAPLRSMLGLINLSQKENTEDTVKLYLDMMVRSIHNMDIFIKDLTQFSRNSRMEVIKESIDFKELITKIENNLKYDDNARFISFERNISQQSLFYSDPNRVETIVSNLLSNAYKYHRFDSNNPYINVKIEVSETAACIVIKDNGSGIADEYHNKIFQMFFRASEKSQGSGLGLYIVKSAIDKLEGTITLHSIPDKESTFTVEIPNLLTR | not soluble
9 | MGSDKIHHHHHHMNEVIENVKEYYGKILHSTADLQSKACCCSPDSMPKEVKKALIFIADEVINRYYGCGSPLPPLLEGMTVLDLGCGSGRDVYVAAQLVGEHGRVIGVDMTQEQLDVAKKYEDEQRQRFGYAKSNVKFLSGYIEDLRAAGISDSSVDIVISNCVVNLSPDKEKVFAEIWRVLKPGGELYFSDVFADRRIPEYLAADPVLRGECIGGALYYEDFRRIMQRVGFTDFRYKSIRNIDLDNEAIIEKVGFANFTERTVRAFKLDDLEDICEDYGQIAVYNGSIASSPHFFDLDDHHRFFTGKPLLVCGNTAAMLAKTRFASAFRVIGNRSTHYGVFGVCGGKSETNCFDTGSSCGC | not soluble
10 | MKDHSGISFGKNPTVLAIENYIRENGLTPGDVLPSEAAICEHLSVSRSSVREAMRTLASLDVVEIRHGHGTYVGKMSMAPLVNGMVLRLTLNEKSAIENLQHVVGMRIALDRSNAQELAAYYKGRETPKLDQIVEEMKIQFERGESFEHQDFLFHQLLNDHLSNPLMQEFSMALWEIHTRVVPRLGLRDPEDISNTVQAHAHMVEALRAGDVDKLLETIDEHYQPLLSILEKNRQYVEQTEHAVESQKGTLHL | not soluble
11 | MKLPDELRQAYQKNARQFSWVFPLETEQTALAIFAAGEKAYQGERFFWQTPKKDFALVGFGYETILKGAETETHQLNNFLKKEAATRFQNMSISGTGALLFGGLPFDTEQTPTEAWGELGEGWFYLPSILFTFSGSRIYGTLNFSGSSEQEVEERWSTLVAQFDRLLATCEELPAVAETKIDKEEVAVTEWLQAVNETVAVLREDGPLKKVVLARQLAVSSPEKIRSNQVLVNLMAQQQNTYLFALEAKDTSFIGATPERLLLGTKETFATACIAGTIKTGQTPEETKTLGAQLLQDRKNTGEHQIVVERLAKELAKMTTSENSIQAPIILENRDVQHLYVPISGQRKPGISFLESVMQLHPTPALGGEPKELAVEWIRQYEPGSRGLYGAPIGWISGNDDSGEFAVALRSGVFAGQQGVLYAGCGIVADSQAELEREETKIKFQPMLRGIGGQV | not soluble
12 | MSLDSLGAINKIQDFLQKQEYKTLEYNLTTTEVVMENVTAFWEEGFGELFEKAKQNNNNRKTSNGDDSLFFSNFSLLGTPVLKDINFKIERGQLLAVAGSTGAGKTSLLMMIMGELEPSEGKIKHSGRISFCSQFSWIMPGTIKENIIFGVSYDEYRYRSVIKACQLEEDISKFAEKDNIVLGEGGITLSGGQRARISLARAVYKDADLYLLDSPFGYLDVLTEKEIFESCVCKLMANKTRILVTSKMEHLKKADKILILMKVAAIFMGHFQNSKIYSQTLAQNSWDVILSTNLVQKEEIQS | soluble
13 | MTSMEEMLREAANEVLQSRIPPGYVLYPNYEQYWSHEHGMFYNPDTEQFYRPEDKTVYQLNAEGSEYVLVERRKPTYWASRSYRKRAIDLLGSAEFKKFDQNEVNICEIAFGMVDKVIKGEEMEKEKEYLRSIANNKVALMQHRINKVFKGNRRRKNPHRQYVANVDESSGHVEYTLQVDDYFDWEDAYEDNSDDEFSEKDEQAVLMHQEGFDQPPCMRVMDALRRLHIITISGGYLGSDRDCEIVVSNQLLPERCAEIVYSEEAQCYSIEKLEDACILQVNGNNVKTSSPVDLCQGDSILLSGERFDVHVHNGSNTCPGCEPGLQQGDDDIAPVTTVPAKNIRGEVARRKNLKQMMKSYGIRPDDVLSEPIRKRPATGPSEMNIHRSEAPGSSSDMYGSCAAKPMPEGQRKFDLPSTSAAVAAAAAPKPLDSGNVGFKLLKSMGWSEGQGLGKEKQGHVEPVATEVKNNRKGLGANEKEPPTKSYKDQVLEKTKQRFNEKR | not soluble
14 | PYSSGVDENYYQDLRNRFNHGELYSADSIPSLGGKIFKTAGGREVYGGGGIIPDIFIPLDTAGLNSYMMKVEDSDLIPRYAFLYSDANRVSLSRFKTVEELGAYLDRTYLIFDFASFAQRYGIPMRTSLINEARNRIKKYINAYIAMNFFDLQGYYQLLLHDDPFILQAISLIKEGKTFPLIYDQKGTQSTDPAA | not soluble
15 | MGSQAAHMMSMDFEDFPVESAHRILTPRPTVMVTTVDEEGNINAAPFSFTMPVSIDPPVVAFASAPDHHTARNIESTHEFVINITPADIIERMWVTARDIPAGENELEAAGLAWTSSRRVKPPRIVEAPGHLECELLRMFEVGDHNLITGSVVSASVRSGAVKEGLLDVESVKPVLHVGGNKFVVGD | not soluble
16 | MAHHHHHHMIYKAYGSPENNSGNTHMYSMYAPPNAYVQGQGGSRTMYGYAGTGGHGSGHPFGYHANPSMGVTYEYNGGINVHHNGSAYRVGGGTNGRDRGGDVVSLRNLHGYDQQATSDYEVHDNQLKAPVVVTPATVVSTLGSARLFSKPPKPIVYGSRCVVRICDAFQEGRCAAGDRCHDIHVRPEYLAETRMEMSSWLFDRECEFRQTMEMDSEKTFSIFVADLKEVVEVPINSLVFTKGLYVDPATRAKRARGAGNHAHVHAMMQVPTSCGLYSTDPLQCKWERWCNQVHIDHRWMQVKKAEFDQWFIELQNRYFSLAPDDTFTVHDPQLKSSISLPKFSIAGFSRGLFQGSMKKLASVCLLFQRGKCTAGSCCNQIHVFPQYLSLAREFAAMEQSPDALPEEKQRLRREMELLRGPLMKQEKQETAAMESASLPNVVSSANEGTHSDAMDIKAAAEEDLASCGALFEHVQVDEDVEPVSHLVSANTSLTRRMNASAPDISLSVARHMNSDGSYSFNPYGSVTSLPDGSTSFNRFPGTRGSGQPMDGNGSVQYTPGSVQLLSTDTKGMRRLVALVSPESGNGAVELHRNGDDMGIGGNAGDGGTATVAHDRAPPFAAGHRSNGGYRAVAHPLGDEGGRYDSGTQGEQSCSLHPLDFDASWHFSPTPLLGFDASTTSTHRNGSIRDEDPAMHAHLRLTASNSSYIYPGSSTTSQQNLLSTPMHRGVTSNATTAARVRLAASAASSRTHAHRSATSLPDSSTTNPAMGGSVSSMPTARPTFVGEQLTGTR | not soluble
17 | SAQNVYGPGVRIGNWNEDVYLEEELMKDFLEKRDKGKLLIQRSRRLKQNLLRPMQLSVTEDGYIHYGDKVMLVNPDDPDTEADVFLRGDLSLCMTPDEIQSHLKDELEVPCGLSAVQAKTPIGRNTFIILSVHRDATGQVLRYGQDFCLGITGGFDNKMLYLSSDHRTLLKSSKRSWLQEVYLTDEVSHVNCWQAAFPDPQLRLEYEGFPVPANAKILINHCHTNRGLAAHRHLFLSTYFGKEAEVVAHTYLDSHRVEKPRNHWMLVTGNPRDASSSMLDLPKPPTEDTRAMEQAMGLDTQ | soluble
18 | MGSDKIHHHHHHMVLGGPMSLNRYFTGGLLCLLGCNPANAQTATIVLSATLLPACEAGSVGSGGAITFGTLDFGQYASLNNAISATSQQGAGSIRVRCVSGQTYAITLDGGLYGSVATRRMANIANTALTLTYNLYSDRPGGIVWDNTTGVAATGNGNDQWYPIYGLVPAQTTPVAGTYRDTVNVTISW | not soluble
19 | MEEKKTESATKNVKKVNLLDHIAIKHLLDESVSDIVTSRGYKEDGSFTSTGLVVSSKLPRFSDQYTLTIDSADPQSISAGKSVQFTKSVTQWLTKDGVLVEGLFWKDVEALVKEYTEAGEPKKKR | not soluble
20 | MVLFTRFMLMGIAMPQISRTALVPYSAEQMYQLVNDVQSYPQFLPGCVGSRVLESSPAQMTAAVDVSKAGISKTFTTRNQLTRNQSILMHLVDGPFKKLIGGWKFTPLSPEACRIEFQLDFEFTNKLIELAFGRIFKELASNMVQAFTVRAKEVYRAGLEHHHHHH | not soluble
21 | MGHHHHHHSHMTWKGGGGWMAAVTHGPGITWGSLLPSAVRQGEQKCKNTDVYFSKLGGGGVPPDSFQRADCGGPTVYPTPARESLSFGTPGFPELRGKLILHVSIAVVVFLFGPGRAGEGPSRLQEASRVSWTLLCRPQAALQTPVRWDDFRRSQPGTARPSAWEPVQGAVS | soluble
